Laboratory results reported in patent US20230398116A1, “Agent for reversing resistance to anticancer drugs” (Y'S AC CO., LTD., priority 2020, published 2023).

T1: IL-26 (Homo sapiens, UniProt Q9NPH9)
T1 sequence (Q9NPH9 22-171): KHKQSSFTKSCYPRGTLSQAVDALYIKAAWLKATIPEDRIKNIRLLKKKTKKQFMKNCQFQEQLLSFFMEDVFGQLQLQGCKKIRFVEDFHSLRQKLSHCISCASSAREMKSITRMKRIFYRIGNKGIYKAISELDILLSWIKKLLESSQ

T2: interaction between IL-26 and EphA3 (Homo sapiens, UniProt Q9NPH9)
T2 construct: purchased R&D Systems; host or cells: IL-26 was purchased; EphA3 is endogenous on HCC70 cells
T2 sequence (Q9NPH9 22-171): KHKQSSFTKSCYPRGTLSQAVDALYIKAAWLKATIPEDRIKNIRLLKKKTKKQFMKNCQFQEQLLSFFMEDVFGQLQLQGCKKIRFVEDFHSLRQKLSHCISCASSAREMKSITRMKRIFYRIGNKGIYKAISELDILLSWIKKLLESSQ

T3: EphA3/IL-26 interaction (Homo sapiens, UniProt Q9NPH9)
T3 construct: purchased R&D Systems; host or cells: IL-26 was purchased; EphA3 is endogenous on E0771 cells
T3 sequence (Q9NPH9 22-171): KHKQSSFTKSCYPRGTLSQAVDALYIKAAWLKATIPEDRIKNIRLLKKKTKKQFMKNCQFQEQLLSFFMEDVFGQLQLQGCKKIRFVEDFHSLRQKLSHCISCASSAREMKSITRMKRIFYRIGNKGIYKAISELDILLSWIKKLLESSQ


Columns and labels:
[1] = test system: HCC70 cells; test: MTT assay / cell proliferation (confluence) assay, HCC70; type: cell-based, human
Protocol: (§1) Human and mouse breast cancer cells (1×10^4) were cultured in 10% FCS containing RPMI1640 medium on a 96-well flat bottom plate (Corning, Tewksbury, MA) at 37° C. for 24 hours, and then stimulated with IL-26 for 48 hours in the presence or absence of EGFR-TKI (gefitinib or erlotinib) at various concentrations, a signal inhibitor, and a neutralizing antibody. HUVECs were seeded in a 96-well flat bottom plate at 5×10^3 cells/well in a 2% FBS-containing EGM medium in which growth factors were reduced by half, and cultured at 37° C. for 12 hours. Thereafter, the medium was aspirated, and a recombinant human IL-26 dimer was adjusted to a final concentration of 10 ng/mL in a 2% FBS-containing EGM medium containing no growth factors, and added to the cells. The stimulation was started in the presence or absence of control human IgG and anti-human IL-26 antibodies, and the cells were cultured for 48 hours. Thereafter, a concentration of 20 μl or 1/10 of a 5 mg/ml MTT solution (Tetrazolium monosodium salt, WST-8) was added to each well, and the plate was allowed to stand for 1 hour. The absorbance at 450 nm/595 nm was measured using Microplate Reader (Bio-Rad, Hercules, CA) and data was analyzed with Microplate Manager 6 software (Bio-Rad).
Human and mouse breast cancer cells (1×10^4) were cultured in RPMI1640 medium containing 10% FCS for 24 hours at 37° C. on a 96-well flat bottom plate (Corning), and then stimulated with IL-26 (30 ng/ml) in the presence or absence of various concentrations of gefitinib and a neutralizing antibody. Cell proliferation was measured as cell confluence using IncuCyte ZOOM (Essen Bioscience, Ann Arbor, MI).

[2] = target: T1, IL-26; test: MTT assay of HUVECs stimulated with IL-26 (neutralizing activity of IL-26); type: cell-based; design: purchased R&D Systems; host or cells: added exogenously to HUVECs; conditions: antibody dose of 3 μg/mL
Protocol: as §1

[3] = target: T1, IL-26; test: ELISA of antigen binding to human IL-26; design: purchased R&D Systems 1375-IL/CF; conditions: for EC50 values (binding to human IL-26, ELISA): plates coated with 0.5 μg/ml human IL-26 monomer, calculated using GraphPadPrism
Protocol: The antigen binding of purified Ch69-10-IgG1, Hu69-10A-IgG1, and Hu69-10B-IgG1 was analyzed by ELISA. ELISA plates were coated overnight at 4° C. with the addition of 0.5 μg/ml human IL-26 (recombinant human IL-26/AK155 monomer, Cat #1375-IL/CF, R&D Systems, Minneapolis, MN) at 100 μl/well in 0.2 M sodium carbonate buffer (pH 9.4). Wells were washed with the wash buffer and blocked with the ELISA buffer. Subsequently, 100 μl/well of test antibody (mouse 69-10, Ch69-10-IgG1, Hu69-10A-IgG1, or Hu69-10B-IgG1) serially diluted 2-fold in RPMI medium starting at 5 μg/ml was added to measure a binding with IL-26. After incubation at room temperature for 1 hour and washing the plates with a wash buffer, a 1/2,000-diluted HRP-conjugated goat anti-human kappa chain polyclonal antibody (Bethyl Laboratories) (for Ch69-10-IgG1, Hu69-10A-IgG1 and Hu69-10B-IgG1) or a 1/2,000-diluted HRP-labeled goat anti-mouse kappa chain polyclonal antibody (Bethyl Laboratories) (for mouse 69-10) in ELISA buffer was added at 100 μl/well to detect bound antibodies. After incubation at room temperature for 30 min and washing with the wash buffer, 100 μl/well of ABTS substrate (Sigma Aldrich) was added to start color development and 100 μl/well of 2% oxalic acid was added to stop the color development. The absorbance was measured at 405 nm.

[4] = Heterogeneous chronic GVHD model (NOG mice transplanted with human umbilical cord blood mononuclear cells); type: in vivo, mouse
Protocol: On day −1, NOG mice were irradiated with a sublethal dose (100 cGy). On day 0, 5×10^6 human umbilical cord blood mononuclear cells were transplanted from the tail vein of NOG mice. Survival of the mice was assessed daily and body weight was measured twice a week. In an antibody treatment experiment, the control human IgG or anti-human IL-26 monoclonal antibody (the mouse antibody m69-10 and the humanized antibody h69-10A) was administered from day +28 of transplantation when clinical signs/symptoms of mild GVHD began to appear. The antibody solution was adjusted to a concentration of 1 mg/mL with sterile PBS, and 200 μL (200 μg) of the antibody solution per mouse was intraperitoneally injected twice a week. On day +56 after transplantation, the mice were sacrificed, and the skin, lung, liver, and large intestine were collected.
NOG mice were dissected, and then the skin, lung, liver, and large intestine on the back were excised, fixed in 10% formalin solution (Wako) at room temperature, and embedded in paraffin. Thereafter, a section having a thickness of 5 μm was prepared and placed on a glass slide, and stained with hematoxylin and eosin (H&E). In addition, in order to confirm the proliferation of collagen fibers, Azan-Mallory staining was performed. Images of the optical microscope were taken with an Olympus BX41 microscope (OLYMPUS, Tokyo, Japan) connected with an Olympus digital camera DP25, and CellSens software was used.

[5] = target: T1, IL-26; test: ICAM-1 expression analysis of COLO205 (neutralizing activity of IL-26); type: cell-based; design: host or cells: added exogenously to COLO205 cells; conditions: for inhibition of IL-26-enhanced expression of ICAM-1: COLO205, recombinant human IL-26 monomer 20 ng/mL, 24 hours, flow cytometry (MFI); for inhibitory effect on IL-26 compared with m69-10 (ICAM-1 expression): COLO205, antibody doses of 2 μg/mL and 5 μg/mL
Protocol: COLO205 was seeded at 5×10^4 cells/well in a 96-well flat bottom plate, and stimulated with recombinant human IL-26 monomer (20 ng/mL) in the presence or absence of control human IgG or anti-human IL-26 antibody. After 24 hours of culture, the cells were collected and washed with ice-cold PBS (FCM buffer) containing 1% FBS and 0.1% sodium azide. Thereafter, a solution prepared by diluting a PE-labeled mouse anti-human ICAM-1 monoclonal antibody (clone 15.2, catalog number 50-0549-T100) of Bay bioscience (Kobe, Japan) or a PE-labeled mouse Igl,k isotype control monoclonal antibody (clone MOPC-21, catalogue number 400114) of BioLegend with FCM buffer to 5 μg/mL, was added at 50 μL/sample, and the mixture was allowed to stand at 4° C. for 25 minutes. Thereafter, the cells were washed with ice-cold FCM buffer, then measured with FACSCalibur, and the obtained data was analyzed with FlowJo.

[6] = target: T2, interaction between IL-26 and EphA3; test: Immunofluorescence of rhIL-26-Alexa488 and cell surface EphA3 on HCC70 cells; type: cell-based; conditions: HCC70, rhIL-26-Alexa488 30 ng/ml, 50 μg/ml each, 1 hour, FIG. 21
Protocol: (§2) E0771 and HCC70 cells (1×10^5) were cultured for 24 hours in RPMI1640 medium with 10% FCS on Lab-Tek chamber slides (Thermo Fisher Scientific). The cultured cells were stimulated with Alexa Fluor 488 labeled IL-26 (30 ng/ml) in the presence or absence of recombinant human and mouse EphA3-Ig for 1 hour. HCC70 cells were stimulated with IL-26 (30 ng/ml) in the presence or absence of gefitinib (40 μM), a signal inhibitor, and a neutralizing antibody for 24 hours. Subcutaneous tumor samples obtained from mice were fixed in 4% paraformaldehyde (Thermo Fisher Scientific) and embedded in OCT compound (Tissue-Tek (registered trademark), Sakura Finetek, Japan). Cells and slides were immunostained with each antibody and observed using a Zeiss inverted microscope and Axiovision 2.0 program (Carl Zeiss, Germany). The fluorescence intensity was quantified with Image-J software (NIH). The images were captured using a 100×400× objective.

[7] = target: T3, EphA3/IL-26 interaction; test: Immunofluorescence of rhIL-26-Alexa 488 and cell surface EphA3 on E0771 cells; type: cell-based, mouse; conditions: E0771, antibodies 10 μg/ml, FIGS. 19 and 20
Protocol: as §2

[8] = 200 μg per mouse i.p. twice a week from day 28, data not shown

| Molecule | reversal of inhibitory effect of IL-26 on gefitinib-induced suppression of cell proliferation ([1]; HCC70, IL-26 30 ng/ml, gefitinib 40 μM, 48 hours, MTT, FIG. 59) | inhibitory effect on IL-26 compared with m69-10 (HCC70 proliferation) ([1]; antibody doses of 5 μg/mL and 20 μg/mL) | inhibitory effect on IL-26 compared with m69-10 (HUVEC proliferation) [2] | EC50 values (binding to human IL-26, ELISA) [3] [µg/mL] | binding to IL-26 (absorption value) ([3]; recombinant human IL-26 immobilized on a plate, FIG. 56) | body weight loss [4, 8] | number of survival days [4, 8] | therapeutic effect compared with m69-10 ([4]; FIG. 60) | inhibition of IL-26-enhanced expression of ICAM-1 [5] | inhibitory effect on IL-26 compared with m69-10 (ICAM-1 expression) [5] | inhibition of interaction between IL-26 and EphA3 [6] | inhibition of colocalization of IL-26 with EphA3 (EphA3/IL-26 interaction) [7] | blocking of inhibitory effect of IL-26 on suppression of cell proliferation by gefitinib ([1]; HCC70, IL-26 30 ng/ml, gefitinib 40 μM, 48 hours, Abs or rhEphA3-Ig 50 μg/ml each, MTT, FIG. 22) |
| --- | --- | --- | --- | --- | --- | --- | --- | --- | --- | --- | --- | --- | --- |
| Hu69-10A-IgG1: humanized 69-10 IgG1/kappa antibody expressed by pHu69-10A (Hu69-10VH1 and Hu69-10VL1) (antibody, V domains shown) VH: QVTLKESGPALVKPTQTLTLTCTFSGFSLSTSGMGVGWIRQPPGKALEWLAHIWWDDDKYYNPSLKSQLTISKDTSKNQVVLTMTNMDPVDTATYYCVRGGITATHYYAMDYWGQGTTVTVSS VL: DIQMTQSPSSLSASVGDRVTITCLASQTIGTWLSWYQQKPGKAPKLLIYAATSLADGVPSRFSGSGSGTKFTFTISSLQPEDIATYYCQQLYSSPWTFGGGTKVEIK | reversed the inhibitory effect of IL-26 on gefitinib-induced suppression of cell proliferation in an antibody dose-dependent manner | significantly higher inhibitory effect on IL-26 than the original mouse antibody m69-10 | significantly higher inhibitory effect on IL-26 than the original mouse antibody m69-10 | 0.304 | stronger binding to IL-26 than an original mouse antibody m69-10 | clearly reduced | significantly prolonged | higher therapeutic effect than the original mouse antibody m69-10 | partially inhibited | significantly higher inhibitory effect on IL-26 than the original mouse antibody m69-10 | – | – | – |
| Hu69-10B-IgG1: humanized 69-10 IgG1/kappa antibody expressed by pHu69-10B (Hu69-10VH1 and Hu69-10VL2) (antibody, V domains shown) VH: QVTLKESGPALVKPTQTLTLTCTFSGFSLSTSGMGVGWIRQPPGKALEWLAHIWWDDDKYYNPSLKSQLTISKDTSKNQVVLTMTNMDPVDTATYYCVRGGITATHYYAMDYWGQGTTVTVSS VL: DIQMTQSPSSLSASVGDRVTITCLASQTIGTWLSWYQQKPGKAPKLLIYAATSLADGVPSRFSGSGSGTDFTFTISSLQPEDIATYYCQQLYSSPWTFGGGTKVEIK | – | – | significantly higher inhibitory effect on IL-26 than the original mouse antibody m69-10 | 0.396 | – | – | – | – | partially inhibited | significantly higher inhibitory effect on IL-26 than the original mouse antibody m69-10 | – | – | – |
| rhEphA3-Ig: recombinant human EphA3 Fc chimeric protein purchased from R&D Systems (protein, left off: a dimerising Fc or GST, recombinant human EphA3 Fc chimeric protein purchased from R&D Systems) ELIPQPSNEVNLLDSKTIQGELGWISYPSHGWEEISGVDEHYTPIRTYQVCNVMDHSQNNWLRTNWVPRNSAQKIYVELKFTLRDCNSIPLVLGTCKETFNLYYMESDDDHGVKFREHQFTKIDTIAADESFTQMDLGDRILKLNTEIREVGPVNKKGFYLAFQDVGACVALVSVRVYFKKCPFTVKNLAMFPDTVPMDSQSLVEVRGSCVNNSKEEDPPRMYCSTEGEWLVPIGKCSCNAGYEERGFMCQACRPGFYKALDGNMKCAKCPPHSSTQEDGSMNCRCENNYFRADKDPPSMACTRPPSSPRNVISNINETSVILDWSWPLDTGGRKDVTFNIICKKCGWNIKQCEPCSPNVRFLPRQFGLTNTTVTVTDLLAHTNYTFEIDAVNGVSELSSPPRQFAAVSITTNQAAPSPVLTIKKDRTSRNSISLSWQEPEHPNGIILDYEVKYYEKQEQETSYTILRARGTNVTISSLKPDTIYVFQIRARTAAGYGTNSRKFEFETSPDSFSISGESSQ | – | – | – | – | – | – | – | – | – | – | clearly inhibited the interaction between IL-26 and EphA3 | inhibited EphA3/IL-26 interaction | potently blocked the inhibitory effect of IL-26 on suppression of cell proliferation by gefitinib |
